The labels stand for the following.
B1: Intersectin-1, residues 1156 to 1213; numbered along this chain, Q15811 (parent)
chain: AVCQVIGMYDYTAQNDDELAFNKGQIINVLNKEDPDWWKGEVNGQVGLFPSNYVKLTT

Results on 167 variants are retold here after the Human Domainome abundance scans (Beltran et al. 2025).

± gives the uncertainty stated by the source.

The series covers variants of B1. The series can be described thus: abundance fitness (aPCA) (normalised: wild type 0, dead -1); higher = more abundant; growth selection in yeast, the domain comes from the species named. The settings on record: Homo sapiens.
With D10R, the abundance fitness was -0.335 ± 0.1.

In the case of D10V, the abundance fitness was -0.661 ± 0.14.

For D10F, the abundance fitness is -1.01 ± 0.44.

Regarding D10L, the abundance fitness is -0.724 ± 0.16.

On to Q14G, for which the abundance fitness is -0.186 ± 0.099.

Regarding Q14W, the abundance fitness was -0.723 ± 0.12.

In the case of Q14P, the abundance fitness is -0.844 ± 0.14.

Consider Q14R, for which the abundance fitness was 0.038 ± 0.073.

Consider G47W, for which the abundance fitness is -0.802 ± 0.16.

For the variant G47S, the abundance fitness was -0.828 ± 0.12.

As to G47H, the abundance fitness was -0.943 ± 0.34.

Consider G47Y, for which the abundance fitness was -0.908 ± 0.25.

D17T: the abundance fitness is -0.119 ± 0.12.

Consider D17R, for which the abundance fitness worked out at 0.014 ± 0.08.

With D17K, the abundance fitness is -0.099 ± 0.16.

On to D17V, for which the abundance fitness was -0.473 ± 0.09.

N28P: the abundance fitness was -0.942 ± 0.38.

For N28V, the abundance fitness is -0.423 ± 0.17.

Take F21Y: the abundance fitness is -1.06 ± 0.28.

Consider F21S, for which the abundance fitness is -0.927 ± 0.15.

Take F21W: the abundance fitness was -0.718 ± 0.12.

On to F21L, for which the abundance fitness is -0.687 ± 0.11.

In the case of F21Q, the abundance fitness was -1.13 ± 0.37.

For the variant A13I, the abundance fitness was -0.735 ± 0.26.

With A13L, the abundance fitness was -0.903 ± 0.13.

Turning to A13F, the abundance fitness was -0.592 ± 0.34.

As to A13R, the abundance fitness is -0.451 ± 0.089.

A13D: the abundance fitness was -0.944 ± 0.24.

Turning to A13E, the abundance fitness was -0.822 ± 0.16.

On to G44L, for which the abundance fitness was -0.879 ± 0.13.

In the case of G44K, the abundance fitness was -0.981 ± 0.25.

For G44C, the abundance fitness is -0.682 ± 0.15.

With G44W, the abundance fitness was -0.832 ± 0.15.

Consider G44D, for which the abundance fitness is -0.397 ± 0.12.

In the case of G44M, the abundance fitness was -0.88 ± 0.17.

Consider G44A, for which the abundance fitness was -0.56 ± 0.11.

Turning to Y53W, the abundance fitness was -0.255 ± 0.11.

Y53T: the abundance fitness was -0.11 ± 0.12.

Turning to Y53P, the abundance fitness is -0.726 ± 0.17.

Take Y53C: the abundance fitness was 0.034 ± 0.1.

Y53N: the abundance fitness was -0.54 ± 0.25.

For the variant Y53A, the abundance fitness is 0.043 ± 0.093.

For the variant Y53E, the abundance fitness was -0.711 ± 0.2.

Turning to Y53R, the abundance fitness was -0.068 ± 0.078.

For the variant S51Q, the abundance fitness is -0.452 ± 0.14.

As for S51T, the abundance fitness was -0.312 ± 0.14.

On to V2Y, for which the abundance fitness is -0.264 ± 0.27.

For the variant V2S, the abundance fitness is -0.233 ± 0.14.

Take V2K: the abundance fitness was -0.06 ± 0.25.

With V2T, the abundance fitness is -0.187 ± 0.16.

Take L19E: the abundance fitness is -0.523 ± 0.16.

For L19W, the abundance fitness was -0.838 ± 0.15.

As to L19P, the abundance fitness is -0.806 ± 0.19.

As to L19R, the abundance fitness is -0.764 ± 0.097.

Turning to W38Q, the abundance fitness was -0.715 ± 0.21.

For W38A, the abundance fitness was -0.533 ± 0.12.

In the case of W38G, the abundance fitness is -0.822 ± 0.11.

Consider W38R, for which the abundance fitness is -1.08 ± 0.19.

For the variant W38F, the abundance fitness is -0.859 ± 0.2.

Take W38E: the abundance fitness was -0.779 ± 0.23.

Turning to W38N, the abundance fitness is -0.644 ± 0.2.

Consider N31S, for which the abundance fitness stood at 0.006 ± 0.098.

Take N31M: the abundance fitness is -0.275 ± 0.13.

As to N31F, the abundance fitness is -1.05 ± 0.42.

N31K: the abundance fitness is -0.319 ± 0.15.

Take D36V: the abundance fitness was -0.069 ± 0.099.

On to D36Y, for which the abundance fitness was 0.01 ± 0.24.

In the case of D36A, the abundance fitness was -0.004 ± 0.1.

D36H: the abundance fitness was -0.08 ± 0.15.

For K32P, the abundance fitness was -0.736 ± 0.2.

Turning to K32D, the abundance fitness was -0.296 ± 0.15.

A20P: the abundance fitness was -0.123 ± 0.12.

Take A20H: the abundance fitness was -0.268 ± 0.2.

Take A20K: the abundance fitness was -0.236 ± 0.15.

On to M8G, for which the abundance fitness is -0.51 ± 0.087.

With M8E, the abundance fitness turned out to be 0.541 ± 0.12.

For the variant M8Y, the abundance fitness is -0.472 ± 0.21.

With M8T, the abundance fitness was -0.002 ± 0.14.

For the variant M8P, the abundance fitness was -0.914 ± 0.19.

As for M8L, the abundance fitness worked out at 0.333 ± 0.09.

In the case of M8S, the abundance fitness is -0.233 ± 0.11.

For F49I, the abundance fitness is -0.184 ± 0.13.

For the variant F49T, the abundance fitness is -0.861 ± 0.18.

As for F49A, the abundance fitness is -0.743 ± 0.11.

Regarding F49D, the abundance fitness was -0.485 ± 0.19.

As to F49C, the abundance fitness was -0.871 ± 0.21.

Take T58P: the abundance fitness was -0.09 ± 0.2.

For T58V, the abundance fitness was -0.113 ± 0.32.

T58L: the abundance fitness is -0.187 ± 0.41.

With V5Y, the abundance fitness was -0.309 ± 0.14.

Regarding V5C, the abundance fitness stood at 0.005 ± 0.12.

With V5G, the abundance fitness was -0.309 ± 0.096.

For the variant V5A, the abundance fitness is -0.045 ± 0.1.

For the variant Y9V, the abundance fitness was found to be 0.336 ± 0.086.

Y9I: the abundance fitness was found to be 0.431 ± 0.13.

Consider Y9C, for which the abundance fitness stood at 0.387 ± 0.12.

Turning to Y9R, the abundance fitness was found to be 0.538 ± 0.074.

On to Y11Q, for which the abundance fitness was -0.692 ± 0.22.

Regarding Y11P, the abundance fitness was -0.759 ± 0.16.

Y11M: the abundance fitness is -0.698 ± 0.18.

For Y11F, the abundance fitness is -0.271 ± 0.2.

As to Y11D, the abundance fitness was -0.928 ± 0.23.

For Y11H, the abundance fitness worked out at 0.077 ± 0.16.

For Y11L, the abundance fitness is -0.851 ± 0.13.

Turning to Q45D, the abundance fitness turned out to be 0.075 ± 0.17.

Consider Q45E, for which the abundance fitness was -0.149 ± 0.13.

Regarding Q45T, the abundance fitness is -0.169 ± 0.13.

In the case of T57W, the abundance fitness was -0.167 ± 0.12.

Regarding T57L, the abundance fitness is -0.116 ± 0.11.

Take W37Y: the abundance fitness is -0.058 ± 0.13.

W37S: the abundance fitness is -0.778 ± 0.12.

As to N15S, the abundance fitness came out at 0.085 ± 0.096.

For N15Q, the abundance fitness was -0.185 ± 0.1.

N15E: the abundance fitness is -0.17 ± 0.11.

In the case of K23C, the abundance fitness is -0.275 ± 0.14.

As for K23L, the abundance fitness was -0.77 ± 0.13.

Take K23I: the abundance fitness is -0.849 ± 0.25.

On to K23T, for which the abundance fitness was 0.065 ± 0.11.

For the variant C3P, the abundance fitness is -0.901 ± 0.17.

Turning to C3Q, the abundance fitness is -0.606 ± 0.16.

In the case of C3K, the abundance fitness was -0.597 ± 0.16.

For I27F, the abundance fitness is -0.805 ± 0.22.

Consider I27V, for which the abundance fitness is -0.297 ± 0.096.

For the variant I27E, the abundance fitness was -0.811 ± 0.2.

For the variant I27S, the abundance fitness was -0.915 ± 0.14.

Take I27A: the abundance fitness is -0.789 ± 0.14.

For the variant I27T, the abundance fitness is -0.859 ± 0.16.

As for N43M, the abundance fitness is -0.56 ± 0.13.

For the variant N43Q, the abundance fitness was -0.36 ± 0.15.

On to D34Y, for which the abundance fitness was -0.94 ± 0.29.

Take D34E: the abundance fitness was -0.376 ± 0.17.

Take D34K: the abundance fitness is -0.176 ± 0.2.

Consider D34R, for which the abundance fitness was -0.116 ± 0.1.

Consider D34C, for which the abundance fitness was -0.553 ± 0.14.

On to D34L, for which the abundance fitness is -0.673 ± 0.14.

Take N22L: the abundance fitness is -0.285 ± 0.12.

Regarding V42W, the abundance fitness is -0.811 ± 0.21.

Take V42Q: the abundance fitness is -0.617 ± 0.32.

Turning to V42T, the abundance fitness is -0.299 ± 0.17.

With V42D, the abundance fitness is -0.663 ± 0.17.

For the variant D16T, the abundance fitness was -0.232 ± 0.11.

In the case of G40I, the abundance fitness was -0.752 ± 0.26.

As to G40Y, the abundance fitness was -0.73 ± 0.19.

Regarding Q4M, the abundance fitness was -0.527 ± 0.16.

Regarding Q4C, the abundance fitness is -0.57 ± 0.19.

On to Q4I, for which the abundance fitness was -0.391 ± 0.28.

For Q4A, the abundance fitness was -0.826 ± 0.17.

Take Q4Y: the abundance fitness is -0.487 ± 0.17.

With L56Q, the abundance fitness was -0.151 ± 0.11.

On to L56R, for which the abundance fitness was -0.341 ± 0.083.

L56G: the abundance fitness was -0.102 ± 0.079.

As to L56V, the abundance fitness worked out at 0.006 ± 0.094.

On to L56E, for which the abundance fitness is 0.005 ± 0.13.

Consider I26G, for which the abundance fitness was -0.857 ± 0.14.

For I26W, the abundance fitness was -0.505 ± 0.17.

Regarding E33Q, the abundance fitness was -0.077 ± 0.24.

With E33V, the abundance fitness is -0.324 ± 0.14.

In the case of E33D, the abundance fitness was -0.047 ± 0.16.

E41H: the abundance fitness is -0.495 ± 0.28.

Take E41G: the abundance fitness is -0.842 ± 0.11.

Turning to L30I, the abundance fitness was found to be 0.043 ± 0.18.

Consider L30E, for which the abundance fitness was -0.978 ± 0.31.

As to T12V, the abundance fitness is -0.165 ± 0.094.

Take T12Y: the abundance fitness was -0.289 ± 0.21.

As to T12N, the abundance fitness turned out to be 0.01 ± 0.16.

In the case of V54H, the abundance fitness was -0.767 ± 0.23.

As to V54R, the abundance fitness was -0.684 ± 0.094.
